Consider 3 molecules from US20250340635A1 (HEFEI TG IMMUNOPHARMA, published 2025).

The target in test [1] is T1, human MICA-His fusion protein (human, UniProt Q29983 24-307).
T1 construct: extracellular domain; also called MICA extracellular region His tag fusion protein; not shown: His tag
T1 sequence (looked up): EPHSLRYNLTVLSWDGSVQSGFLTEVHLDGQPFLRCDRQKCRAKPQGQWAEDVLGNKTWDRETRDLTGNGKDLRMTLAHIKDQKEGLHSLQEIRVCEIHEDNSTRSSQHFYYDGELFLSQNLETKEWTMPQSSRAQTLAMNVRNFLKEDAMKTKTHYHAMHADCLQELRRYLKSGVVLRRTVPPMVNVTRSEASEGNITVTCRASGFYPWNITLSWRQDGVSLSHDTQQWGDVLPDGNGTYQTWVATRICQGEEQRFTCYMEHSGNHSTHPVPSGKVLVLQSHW
In words: ELISA, MICA-His coated, anti-human HRP. In general terms: An ELISA detects its analyte on a solid surface through an enzyme-linked reagent.

For test [2], the target named is T2, human NKp46-His fusion protein (human, UniProt O76036 22-258).
T2 construct: Bought from Acro; also called NKp46 extracellular region His tag fusion protein; not shown: His tag
T2 sequence (O76036 22-258 Q82K): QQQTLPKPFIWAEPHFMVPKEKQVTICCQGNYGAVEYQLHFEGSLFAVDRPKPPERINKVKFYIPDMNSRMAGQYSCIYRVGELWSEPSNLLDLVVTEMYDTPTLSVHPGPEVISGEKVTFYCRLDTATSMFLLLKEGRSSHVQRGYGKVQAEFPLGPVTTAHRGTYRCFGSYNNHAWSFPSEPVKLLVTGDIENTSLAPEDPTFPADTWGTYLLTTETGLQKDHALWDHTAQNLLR
In words: ELISA, NKp46-His coated, anti-human HRP.

The target in test [3] is T3, cynomolgus monkey-His fusion protein (cynomolgus monkey, UniProt Q95JB9 22-257).
T3 construct: extracellular domain; also called cynomolgus monkey NKp46; monkey NKp46; not shown: His tag
T3 sequence (Q95JB9 22-257): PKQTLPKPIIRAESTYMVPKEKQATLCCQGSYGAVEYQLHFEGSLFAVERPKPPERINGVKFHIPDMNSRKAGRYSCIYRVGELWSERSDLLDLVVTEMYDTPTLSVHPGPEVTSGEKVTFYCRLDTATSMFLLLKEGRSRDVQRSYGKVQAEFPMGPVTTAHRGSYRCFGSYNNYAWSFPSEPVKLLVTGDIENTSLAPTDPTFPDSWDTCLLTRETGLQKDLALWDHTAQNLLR
Briefly: not described at this place ("Validation has shown"); Jeru4602 was tested by ELISA on coated cynomolgus NKp46-His in Example 7. As for the experimental part:
The binding characteristics of the humanized 10D10 antibody prepared in Example 6 was detected using the ELISA assay. The NKp46 extracellular region His tag fusion protein (NKp46-His) was coated into a 96-well plate. The signal intensity after antibody addition was used to determine the binding characteristics of the antibody to NKp46. The specific steps were as follows:
The human NKp46-His fusion protein and cynomolgus monkey-His fusion protein (for specific sources, see Example 2) were diluted to 1 μg/mL with PBS buffer, added to a 96-well plate at 100 μL/well and left overnight at 4° C. The PBS buffer solution was removed from the 96-well plate. The plate was washed 6 times with PBST (pH 7.2, PBS containing 0.1% Tween 20) buffer solution. PBS/10% BSA was added at 200 μL/well and incubated at 37° C. for 2 hours for blocking. The blocking solution was removed. The plate was washed 6 times with PBST. […] The absorbance at […] was read with a microplate reader.

B1: murine 10D10×MICA bispecific antibody (bispecific antibody, human IgG1, kappa, L234A L235A)
chain: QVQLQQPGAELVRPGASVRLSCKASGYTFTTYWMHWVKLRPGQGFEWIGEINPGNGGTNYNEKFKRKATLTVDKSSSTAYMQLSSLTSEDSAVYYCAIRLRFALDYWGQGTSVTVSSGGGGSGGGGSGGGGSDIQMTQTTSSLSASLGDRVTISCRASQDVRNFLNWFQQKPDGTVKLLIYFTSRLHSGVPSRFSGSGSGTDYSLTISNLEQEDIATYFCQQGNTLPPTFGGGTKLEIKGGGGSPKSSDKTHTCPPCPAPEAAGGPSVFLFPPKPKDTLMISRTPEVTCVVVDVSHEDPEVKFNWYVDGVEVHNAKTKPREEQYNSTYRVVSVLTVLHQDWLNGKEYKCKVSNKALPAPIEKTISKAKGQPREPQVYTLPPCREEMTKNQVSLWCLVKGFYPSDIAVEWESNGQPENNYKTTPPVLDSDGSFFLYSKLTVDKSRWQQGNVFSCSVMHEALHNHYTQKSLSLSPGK
heavy: QVQLQESGPGLVKPSETLSLTCTVSGFSLTTYGVHWIRQPPGKGLEWIGMIWTDATTDYNAAFISRVTISVDTSKNQFSLKLSSVTAADTAVYYCARKGHGYYYAMDYWGQGTLVTVSSASTKGPSVFPLAPSSKSTSGGTAALGCLVKDYFPEPVTVSWNSGALTSGVHTFPAVLQSSGLYSLSSVVTVPSSSLGTQTYICNVNHKPSNTKVDKKVEPKSCDKTHTCPPCPAPEAAGGPSVFLFPPKPKDTLMISRTPEVTCVVVDVSHEDPEVKFNWYVDGVEVHNAKTKPREEQYNSTYRVVSVLTVLHQDWLNGKEYKCKVSNKALPAPIEKTISKAKGQPREPQVCTLPPSREEMTKNQVSLSCAVKGFYPSDIAVEWESNGQPENNYKTTPPVLDSDGSFFLVSKLTVDKSRWQQGNVFSCSVMHEALHNHYTQKSLSLSPGK
light: EIVLTQSPGTLSLSPGERATLSCTASSSVSSSYLHWYQQKPGQAPRLLIYSTSNLASGIPDRFSGSGSGTDFTLTISRLEPEDFAVYYCHQYHRSPFTFGQGTKLEIKRTVAAPSVFIFPPSDEQLKSGTASVVCLLNNFYPREAKVQWKVDNALQSGNSQESVTEQDSKDSTYSLSSTLTLSKADYEKHKVYACEVTHQGLSSPVTKSFNRGEC
notes: First chain is the murine 10D10 ScFv-Fc (knob); the heavy and light chains are those of the MICA antibody (hole); knob-into-hole heterodimer; also called NKp46 (murine 10D10)×MICA bispecific antibody
For the molecule B1, the binding result in test [1] and in test [2] was “binds” each time.

B2: humanized 10D10×MICA bispecific antibody (bispecific antibody, human IgG1, kappa, L234A L235A)
chain: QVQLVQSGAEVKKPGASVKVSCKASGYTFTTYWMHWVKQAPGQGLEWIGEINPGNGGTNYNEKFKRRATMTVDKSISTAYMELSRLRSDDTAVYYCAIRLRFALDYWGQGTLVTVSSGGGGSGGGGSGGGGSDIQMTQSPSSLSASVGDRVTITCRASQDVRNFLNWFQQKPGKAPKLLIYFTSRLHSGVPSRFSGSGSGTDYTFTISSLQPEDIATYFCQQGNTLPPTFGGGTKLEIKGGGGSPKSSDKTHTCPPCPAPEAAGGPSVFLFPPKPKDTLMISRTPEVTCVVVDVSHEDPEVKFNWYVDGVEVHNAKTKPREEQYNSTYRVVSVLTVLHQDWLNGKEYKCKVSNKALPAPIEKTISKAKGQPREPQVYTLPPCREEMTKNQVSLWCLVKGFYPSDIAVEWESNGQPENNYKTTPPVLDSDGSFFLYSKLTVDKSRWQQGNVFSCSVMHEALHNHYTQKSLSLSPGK
heavy: B1 heavy
light: B1 light
notes: First chain is the humanized h10D10 ScFv-Fc (knob); the heavy and light chains are those of the MICA antibody (hole); also called h10D10×MICA; NKp46 (humanized 10D10)×MICA bispecific antibody
Turning to B2, the binding result in test [1] and in test [2] was “binds” in each case.

B3: Jeru4602 (antibody, human IgG1, kappa, L234A L235A, V domains shown)
VH: QVTLKESGPGILQPSQTLSLTCSFSGFSLSTYGIGVGWNRQPSGKGLEWLAHIWWNDNEYYNIDLKSRLTISKDTSNNQVFLKIASVDTADTATYYCVRGNYRYARGYVMDYWGQGTSVTVSS
VL: DIVLTQSPASLAVSLGQRATISCRASESVEYYGTSLMQWYQQKPGQPPKLLIYAASNVESGVPARFSGSGSGTDFSLNIHPVEEDDFAMYFCQQNRKVPWTFGGGTKLEIKR
notes: also called control antibody 2; NKp46 antibody disclosed in U.S. Ser. No. 10/716,864
For the molecule B3, the binding result in test [3] was “no binding”.
